The results in this text go back to patent US20220324969A1 (MYTHIC THERAPEUTICS, published 2022).

Residue numbers refer to the chain shown, from its start. In names and notes the source's numbering stands.

The chains are these.
B1: MYT2630 (antibody, V domains shown)
VH: QVQLQQPGAEVVKPGASVKMSCKASGYTFTSYYIHWIKQTPGQGLEWVGVIYPGNDDISYNQKFQGKATLTADKSSTTAYMQLSSLTSEDSAVYYCAREVRLRYFDVWGQGTTVTVSS
VL: EIVLTQSPGSLAVSPGERVTMSCKSSQSVFFSSSQKHYLAWYQQIPGQSPRLLIYWASTRESGVPDRFTGSGSGTDFTLTISSVQPEDLAIYYCHQYLSSRTFGQGTKLEIK
notes: IgG; IMGN779 VL variant #14 (N37H)
B2: MYT2640 (antibody, V domains shown)
VH: B1 VH
VL: B1 VL with H37N, S62H
notes: IgG; IMGN779 VL variant #24 (S62H)
B3: MYT2631 (antibody, V domains shown)
VH: B1 VH
VL: B1 VL with H37N, Y38H
notes: IgG; IMGN779 VL variant #15 (Y38H)
B4: MYT2635 (antibody, V domains shown)
VH: B1 VH
VL: B1 VL with H37N, A57H
notes: IgG; IMGN779 VL variant #19 (A57H)
B5: MYT2636 (antibody, V domains shown)
VH: B1 VH
VL: B1 VL with H37N, S58H
notes: IgG; IMGN779 VL variant #20 (S58H)
B6: MYT2638 (antibody, V domains shown)
VH: B1 VH
VL: B1 VL with H37N, R60H
notes: IgG; IMGN779 VL variant #22 (R60H)
B7: MYT2648 (antibody, V domains shown)
VH: B1 VH
VL: B1 VL with H37N, T102H
notes: IgG; IMGN779 VL variant #32 (T102H)
B8: MYT2634 (antibody, V domains shown)
VH: B1 VH
VL: B1 VL with H37N, W56H
notes: IgG; IMGN779 VL variant #18 (W56H)
B9: MYT2647 (antibody, V domains shown)
VH: B1 VH
VL: B1 VL with H37N, R101H
notes: IgG; IMGN779 VL variant #31 (R101H)
B10: MYT2643 (antibody, V domains shown)
VH: B1 VH
VL: B1 VL with H37N, Y97H
notes: IgG; IMGN779 VL variant #27 (Y97H)
B11: MYT2637 (antibody, V domains shown)
VH: B1 VH
VL: B1 VL with H37N, T59H
notes: IgG; IMGN779 VL variant #21 (T59H)
B12: MYT2632 (antibody, V domains shown)
VH: B1 VH
VL: B1 VL with H37N, L39H
notes: IgG; IMGN779 VL variant #16 (L39H)
B13: MYT2644 (antibody, V domains shown)
VH: B1 VH
VL: B1 VL with H37N, L98H
notes: IgG; IMGN779 VL variant #28 (L98H)
B14: MYT2642 (antibody, V domains shown)
VH: B1 VH
VL: B1 VL with H37N, Q96H
notes: IgG; IMGN779 VL variant #26 (Q96H)
B15: MYT2646 (antibody, V domains shown)
VH: B1 VH
VL: B1 VL with H37N, S100H
notes: IgG; IMGN779 VL variant #30 (S100H)
B16: MYT2641 (antibody, V domains shown)
VH: B1 VH
VL: B1 VL with H37N, H95A
notes: IgG; IMGN779 VL variant #25 (H95A)
B17: MYT2639 (antibody, V domains shown)
VH: B1 VH
VL: B1 VL with H37N, E61H
notes: IgG; IMGN779 VL variant #23 (E61H)
B18: MYT2645 (antibody, V domains shown)
VH: B1 VH
VL: B1 VL with H37N, S99H
notes: IgG; IMGN779 VL variant #29 (S99H)
B19: MYT1335 (antibody, V domains shown)
VH: QVQLVQSGAEVKKPGASVKVSCKASHYTFTNYDINWVRQAPGQGLEWIGWIYPGDGSTKYNEKFKAKATLTADTSTSTAYMELRSLRSDDTAVYYCASGYEDAMDYWGQGTTVTVSS
VL: DIQMTQSPSSLSASVGDRVTINCKASQDINSYLSWFQQKPGKAPKTLIYRANRLVDGVPSRFSGSGSGQDYTLTISSLQPEDFATYYCLQYDEFPLTFGGGTKVEIK
notes: IgG; vadastuximab VH variant #1 (G26H)
B20: MYT1346 (antibody, V domains shown)
VH: B19 VH with H26G, I51H
VL: B19 VL
notes: IgG; vadastuximab VH variant #12 (I51H)
B21: MYT1347 (antibody, V domains shown)
VH: B19 VH with H26G, Y52H
VL: B19 VL
notes: IgG; vadastuximab VH variant #13 (Y52H)
B22: MYT1337 (antibody, V domains shown)
VH: B19 VH with H26G, T28H
VL: B19 VL
notes: IgG; vadastuximab VH variant #3 (T28H)
B23: MYT1343 (antibody, V domains shown)
VH: B19 VH with H26G, I34H
VL: B19 VL
notes: IgG; vadastuximab VH variant #9 (I34H)
B24: MYT1336 (antibody, V domains shown)
VH: B19 VH with H26G, Y27H
VL: B19 VL
notes: IgG; vadastuximab VH variant #2 (Y27H)
B25: MYT1345 (antibody, V domains shown)
VH: B19 VH with H26G, W50H
VL: B19 VL
notes: IgG; vadastuximab VH variant #11 (W50H)
B26: MYT1340 (antibody, V domains shown)
VH: B19 VH with H26G, N31H
VL: B19 VL
notes: IgG; vadastuximab VH variant #6 (N31H)
B27: MYT1339 (antibody, V domains shown)
VH: B19 VH with H26G, T30H
VL: B19 VL
notes: IgG; vadastuximab VH variant #5 (T30H)
B28: MYT1338 (antibody, V domains shown)
VH: B19 VH with H26G, F29H
VL: B19 VL
notes: IgG; vadastuximab VH variant #4 (F29H)
B29: MYT1341 (antibody, V domains shown)
VH: B19 VH with H26G, Y32H
VL: B19 VL
notes: IgG; vadastuximab VH variant #7 (Y32H)
B30: MYT1348 (antibody, V domains shown)
VH: B19 VH with H26G, P53H
VL: B19 VL
notes: IgG; vadastuximab VH variant #14 (P53H)

Chain of CD33 (Sino Biological, Cat #12238-H08H) (P20138 18-259 limits assumed): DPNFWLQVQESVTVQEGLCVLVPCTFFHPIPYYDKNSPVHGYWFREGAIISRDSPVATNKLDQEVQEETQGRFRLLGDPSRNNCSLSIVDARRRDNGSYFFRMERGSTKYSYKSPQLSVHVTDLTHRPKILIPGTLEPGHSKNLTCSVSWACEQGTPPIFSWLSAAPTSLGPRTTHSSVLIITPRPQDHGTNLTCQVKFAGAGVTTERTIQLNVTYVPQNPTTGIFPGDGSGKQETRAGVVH

The experiment concerns the target CD33 (Sino Biological, Cat #12238-H08H) (UniProt P20138 18-259). Put plainly: BLI, IgG captured on anti-human Fc sensor, 50 nM CD33, pH 7.4 vs pH 5.4. In general terms: Biolayer interferometry detects binding as a change in optical thickness at a sensor tip.
Take B1: the binding result is listed as “binds”.
For B2, the binding result is “binds”.
In the case of B3, the binding result was “binds”.
Then B4, with “binds”; and B5, with “binds”.
Next, B6: “binds”; B7: “binds”; B8: “binds”.
Turning to B9, the binding result is reported as “binds”.
Next, B10: “binds”.
In the case of B11, the binding result is “binds”.
For B12, the binding result is reported as “binds”.
Then B13, with “binds”; and B14, with “binds”; and B15, with “binds”.
Regarding B16, the binding result is listed as “binds”.
Then B17, with “binds”; and B18, with “binds”.
Next, B19: “binds”; B20: “binds”.
In the case of B21, the binding result was “binds”.
In the case of B22, the binding result is on record as “binds”.
Then B23, with “binds”; and B24, with “binds”.
Next, B25: “binds”; B26: “binds”; B27: “binds”.
As to B28, the binding result is on record as “binds”.
Then B29, with “binds”.
For the molecule B30, the binding result is “binds”.
